# Assay results as given in PMC2140218.
# Read-outs that look alike come from different tables or passages of the source.
# Assays:
# [1] = molecular target: taxol-stabilized bovine brain microtubules (bovine) (UniProt Q6B856); assay: co-sedimentation
# [2] = molecular target: taxol-stabilized bovine brain microtubules (bovine) (UniProt Q6B856); assay: co-sedimentation; remark: listed apart in the source
Binder,fold higher Kd than full length Stu2p [1] [fold],Kd [1] [nM],Kd [2] [nM]
"Stu2p C611 (domain or fragment, [35S]methionine label) MSGEEEVDYTTLPLEERLTYKLWKARLEAYKELNQLFRNSVGDISRDDNIQIYWRDPTLFAQYITDSNVVAQEQAIVALNSLIDAFASSSLKNAHNITLISTWTPLLVEKGLTSSRATTKTQSMSCILSLCGLDTSITQSVELVIPFFEKKLPKLIAAAANCVYELMAAFGLTNVNVQTFLPELLKHVPQLAGHGDRNVRSQTMNLIVEIYKVTGNNSDLLEEILFKKLKPIQVKDLHKLFAKVGDEPSSSKMLFEWEKRELEKKRSQEEEARKRKSILSNDEGEYQIDKDGDTLMGMETDMPPSKQQSGVQIDTFSMLPEETILDKLPKDFQERITSSKWKDRVEALEEFWDSVLSQTKKLKSTSQNYSNLLGIYGHIIQKDANIQAVALAAQSVELICDKLKTPGFSKDYVSLVFTPLLDRTKEKKPSVIEAIRKALLTICKYYDPLASSGRNEDMLKDILEHMKHKTPQIRMECTQLFNASMKEEKDGYSTLQRYLKDEVVPIVIQIVNDTQPAIRTIGFESFAILIKIFGMNTFVKTLEHLDNLKRKKIEETVKTLPNFSIASGSTHSTIETNKQTGPMENKFLLKKSSVLPSKRVASSPLRNDNKS",6,–,–
"Stu2p (natural protein, [35S]methionine label) MSGEEEVDYTTLPLEERLTYKLWKARLEAYKELNQLFRNSVGDISRDDNIQIYWRDPTLFAQYITDSNVVAQEQAIVALNSLIDAFASSSLKNAHNITLISTWTPLLVEKGLTSSRATTKTQSMSCILSLCGLDTSITQSVELVIPFFEKKLPKLIAAAANCVYELMAAFGLTNVNVQTFLPELLKHVPQLAGHGDRNVRSQTMNLIVEIYKVTGNNSDLLEEILFKKLKPIQVKDLHKLFAKVGDEPSSSKMLFEWEKRELEKKRSQEEEARKRKSILSNDEGEYQIDKDGDTLMGMETDMPPSKQQSGVQIDTFSMLPEETILDKLPKDFQERITSSKWKDRVEALEEFWDSVLSQTKKLKSTSQNYSNLLGIYGHIIQKDANIQAVALAAQSVELICDKLKTPGFSKDYVSLVFTPLLDRTKEKKPSVIEAIRKALLTICKYYDPLASSGRNEDMLKDILEHMKHKTPQIRMECTQLFNASMKEEKDGYSTLQRYLKDEVVPIVIQIVNDTQPAIRTIGFESFAILIKIFGMNTFVKTLEHLDNLKRKKIEETVKTLPNFSIASGSTHSTIETNKQTGPMENKFLLKKSSVLPSKRVASSPLRNDNKSKVNPIGSVASASKPSMVAANNKSRVLLTSKSLATPKNVVANSTDKNEKLIEEYKYRLQKLQNDEMIWTKERQSLLEKMNNTENYKIEMIKENEMLREQLKEAQSKLNEKNIQLRSKEIDVNKLSDRVLSLENELRNMEIELDRNKKRNDTNLQSMGTISSYSIPSSTVSSNYGVKSLSSALPFKEEEDVRRKEDVNYERRSSESIGDLPHRVNSLNIRPYRKNGTGVSSVSDDLDIDFNDSFASEESYKRAAAVTSTLKARIEKMKAKSRREGTTRT",–,540,560
"Stu2p C557 (domain or fragment, [35S]methionine label) MSGEEEVDYTTLPLEERLTYKLWKARLEAYKELNQLFRNSVGDISRDDNIQIYWRDPTLFAQYITDSNVVAQEQAIVALNSLIDAFASSSLKNAHNITLISTWTPLLVEKGLTSSRATTKTQSMSCILSLCGLDTSITQSVELVIPFFEKKLPKLIAAAANCVYELMAAFGLTNVNVQTFLPELLKHVPQLAGHGDRNVRSQTMNLIVEIYKVTGNNSDLLEEILFKKLKPIQVKDLHKLFAKVGDEPSSSKMLFEWEKRELEKKRSQEEEARKRKSILSNDEGEYQIDKDGDTLMGMETDMPPSKQQSGVQIDTFSMLPEETILDKLPKDFQERITSSKWKDRVEALEEFWDSVLSQTKKLKSTSQNYSNLLGIYGHIIQKDANIQAVALAAQSVELICDKLKTPGFSKDYVSLVFTPLLDRTKEKKPSVIEAIRKALLTICKYYDPLASSGRNEDMLKDILEHMKHKTPQIRMECTQLFNASMKEEKDGYSTLQRYLKDEVVPIVIQIVNDTQPAIRTIGFESFAILIKIFGMNTFVKTLEHLDNLKRKKIEETV",30,–,–

# Next, values leading:
fold higher Kd than full length Stu2p [1] [fold],Kd [1] [nM],Kd [2] [nM],Binder
1.4,–,–,"Stu2p N558 (domain or fragment, [35S]methionine label) KTLPNFSIASGSTHSTIETNKQTGPMENKFLLKKSSVLPSKRVASSPLRNDNKSKVNPIGSVASASKPSMVAANNKSRVLLTSKSLATPKNVVANSTDKNEKLIEEYKYRLQKLQNDEMIWTKERQSLLEKMNNTENYKIEMIKENEMLREQLKEAQSKLNEKNIQLRSKEIDVNKLSDRVLSLENELRNMEIELDRNKKRNDTNLQSMGTISSYSIPSSTVSSNYGVKSLSSALPFKEEEDVRRKEDVNYERRSSESIGDLPHRVNSLNIRPYRKNGTGVSSVSDDLDIDFNDSFASEESYKRAAAVTSTLKARIEKMKAKSRREGTTRT"
3.5,–,–,"Stu2p N612 (domain or fragment, [35S]methionine label) KVNPIGSVASASKPSMVAANNKSRVLLTSKSLATPKNVVANSTDKNEKLIEEYKYRLQKLQNDEMIWTKERQSLLEKMNNTENYKIEMIKENEMLREQLKEAQSKLNEKNIQLRSKEIDVNKLSDRVLSLENELRNMEIELDRNKKRNDTNLQSMGTISSYSIPSSTVSSNYGVKSLSSALPFKEEEDVRRKEDVNYERRSSESIGDLPHRVNSLNIRPYRKNGTGVSSVSDDLDIDFNDSFASEESYKRAAAVTSTLKARIEKMKAKSRREGTTRT"
1.6,–,–,"Stu2p C657 (domain or fragment, [35S]methionine label) MSGEEEVDYTTLPLEERLTYKLWKARLEAYKELNQLFRNSVGDISRDDNIQIYWRDPTLFAQYITDSNVVAQEQAIVALNSLIDAFASSSLKNAHNITLISTWTPLLVEKGLTSSRATTKTQSMSCILSLCGLDTSITQSVELVIPFFEKKLPKLIAAAANCVYELMAAFGLTNVNVQTFLPELLKHVPQLAGHGDRNVRSQTMNLIVEIYKVTGNNSDLLEEILFKKLKPIQVKDLHKLFAKVGDEPSSSKMLFEWEKRELEKKRSQEEEARKRKSILSNDEGEYQIDKDGDTLMGMETDMPPSKQQSGVQIDTFSMLPEETILDKLPKDFQERITSSKWKDRVEALEEFWDSVLSQTKKLKSTSQNYSNLLGIYGHIIQKDANIQAVALAAQSVELICDKLKTPGFSKDYVSLVFTPLLDRTKEKKPSVIEAIRKALLTICKYYDPLASSGRNEDMLKDILEHMKHKTPQIRMECTQLFNASMKEEKDGYSTLQRYLKDEVVPIVIQIVNDTQPAIRTIGFESFAILIKIFGMNTFVKTLEHLDNLKRKKIEETVKTLPNFSIASGSTHSTIETNKQTGPMENKFLLKKSSVLPSKRVASSPLRNDNKSKVNPIGSVASASKPSMVAANNKSRVLLTSKSLATPKNVVANSTDKN"
> 50,–,–,"Stu2p N658 (domain or fragment, [35S]methionine label) EKLIEEYKYRLQKLQNDEMIWTKERQSLLEKMNNTENYKIEMIKENEMLREQLKEAQSKLNEKNIQLRSKEIDVNKLSDRVLSLENELRNMEIELDRNKKRNDTNLQSMGTISSYSIPSSTVSSNYGVKSLSSALPFKEEEDVRRKEDVNYERRSSESIGDLPHRVNSLNIRPYRKNGTGVSSVSDDLDIDFNDSFASEESYKRAAAVTSTLKARIEKMKAKSRREGTTRT"
